Results: article PMC8383114

Biological target: C18 (a CaM binding peptide from CaMKIIα)
Assay: FRET or BRET

## WT-CaM of the BRET construct (Venus, CaM, target peptide, RLuc8) (from UniProt P0DP26 1-149) (natural protein)
  Kd from the Ca2+ titration curve of the BRET construct: 3.92 µM
